# Data: patent US20140087995A1 (published 2014)
# Numbered stars: 1 amine (or outer) side, 2 acyl side, 3 side chain; on linkers, the order of the positions; unused ones are H or OH. Bridge positions count the residues as written; N and C are the ends. Side chains are listed from the residue outwards. Ends that are not written are not given here. * marks the point of attachment. C20 diacid = O=C(O)CCCCCCCCCCCCCCCCCCC(=O)*; γGlu = O=C(O)[C@H](CCC(=O)[*:2])N[*:1]; AEEA = NCCOCCOCC(=O)O
# T1: human calcitonin receptor (human, UniProt P30988 25-474)
# T1 sequence (looked up): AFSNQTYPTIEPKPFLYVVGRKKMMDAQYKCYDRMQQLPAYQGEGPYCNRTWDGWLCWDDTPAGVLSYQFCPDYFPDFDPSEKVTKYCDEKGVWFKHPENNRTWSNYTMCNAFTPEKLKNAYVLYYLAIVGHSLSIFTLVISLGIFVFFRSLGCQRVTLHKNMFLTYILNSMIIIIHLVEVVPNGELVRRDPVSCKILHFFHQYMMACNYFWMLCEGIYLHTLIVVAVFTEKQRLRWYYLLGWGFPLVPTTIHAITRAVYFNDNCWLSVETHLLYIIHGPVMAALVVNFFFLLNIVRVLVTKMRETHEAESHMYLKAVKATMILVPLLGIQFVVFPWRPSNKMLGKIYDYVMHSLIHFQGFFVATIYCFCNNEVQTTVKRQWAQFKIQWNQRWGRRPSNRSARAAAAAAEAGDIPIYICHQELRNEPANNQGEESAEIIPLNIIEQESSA
# T2: human amylin receptor (amylin 3(a) receptor: human calcitonin receptor co-expressed with RAMP-3) (human, UniProt P30988 25-474; O60896 24-148, limits assumed)
# T2 sequence (looked up) 1: T1 sequence (looked up)
# T2 sequence (looked up) 2: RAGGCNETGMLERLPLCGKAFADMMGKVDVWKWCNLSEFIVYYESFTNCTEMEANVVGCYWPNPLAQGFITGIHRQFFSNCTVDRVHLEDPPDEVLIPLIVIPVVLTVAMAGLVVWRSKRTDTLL
# B1: N^ε1-[2-[2-[2-[[(4S)-4-carboxy-4-(19-carboxynonadecanoylamino)butanoyl]amino]ethoxy]ethoxy]acetyl]-[Ser14,Arg17,Pro21,Pro27,Pro31]-h-amylin (peptide)
# peptide: K([AEEA-γGlu-C20 diacid])CNTATCATQRLASFLRHSSPNFGAIPSSTPVGSNTY-NH2
# modifications: disulfide 2-7; N-terminus assumed
# SMILES: CC[C@H](C)[C@H](NC(=O)[C@H](C)NC(=O)CNC(=O)[C@H](Cc1ccccc1)NC(=O)[C@H](CC(N)=O)NC(=O)[C@@H]1CCCN1C(=O)[C@H](CO)NC(=O)[C@H](CO)NC(=O)[C@H](Cc1c[nH]cn1)NC(=O)[C@H](CCCNC(=N)N)NC(=O)[C@H](CC(C)C)NC(=O)[C@H](Cc1ccccc1)NC(=O)[C@H](CO)NC(=O)[C@H](C)NC(=O)[C@H](CC(C)C)NC(=O)[C@H](CCCNC(=N)N)NC(=O)[C@H](CCC(N)=O)NC(=O)[C@@H](NC(=O)[C@H](C)NC(=O)[C@@H]1CSSC[C@H](NC(=O)[C@@H](N)CCCCNC(=O)COCCOCCNC(=O)CC[C@H](NC(=O)CCCCCCCCCCCCCCCCCCC(=O)O)C(=O)O)C(=O)N[C@@H](CC(N)=O)C(=O)N[C@@H]([C@@H](C)O)C(=O)N[C@@H](C)C(=O)N[C@@H]([C@@H](C)O)C(=O)N1)[C@@H](C)O)C(=O)N1CCC[C@H]1C(=O)N[C@@H](CO)C(=O)N[C@@H](CO)C(=O)N[C@H](C(=O)N1CCC[C@H]1C(=O)N[C@H](C(=O)NCC(=O)N[C@@H](CO)C(=O)N[C@@H](CC(N)=O)C(=O)N[C@H](C(=O)N[C@@H](Cc1ccc(O)cc1)C(N)=O)[C@@H](C)O)C(C)C)[C@@H](C)O
# notes: also called compound 73
# B2: N^ε1-[(4S)-4-carboxy-4-(19-carboxynonadecanoylamino)butanoyl]-[Arg14,Arg17,Pro21,Pro27,Pro31]-h-amylin (peptide)
# peptide: K([γGlu-C20 diacid])CNTATCATQRLARFLRHSSPNFGAIPSSTPVGSNTY-NH2
# modifications: disulfide 2-7; N-terminus assumed
# SMILES: CC[C@H](C)[C@H](NC(=O)[C@H](C)NC(=O)CNC(=O)[C@H](Cc1ccccc1)NC(=O)[C@H](CC(N)=O)NC(=O)[C@@H]1CCCN1C(=O)[C@H](CO)NC(=O)[C@H](CO)NC(=O)[C@H](Cc1c[nH]cn1)NC(=O)[C@H](CCCNC(=N)N)NC(=O)[C@H](CC(C)C)NC(=O)[C@H](Cc1ccccc1)NC(=O)[C@H](CCCNC(=N)N)NC(=O)[C@H](C)NC(=O)[C@H](CC(C)C)NC(=O)[C@H](CCCNC(=N)N)NC(=O)[C@H](CCC(N)=O)NC(=O)[C@@H](NC(=O)[C@H](C)NC(=O)[C@@H]1CSSC[C@H](NC(=O)[C@@H](N)CCCCNC(=O)CC[C@H](NC(=O)CCCCCCCCCCCCCCCCCCC(=O)O)C(=O)O)C(=O)N[C@@H](CC(N)=O)C(=O)N[C@@H]([C@@H](C)O)C(=O)N[C@@H](C)C(=O)N[C@@H]([C@@H](C)O)C(=O)N1)[C@@H](C)O)C(=O)N1CCC[C@H]1C(=O)N[C@@H](CO)C(=O)N[C@@H](CO)C(=O)N[C@H](C(=O)N1CCC[C@H]1C(=O)N[C@H](C(=O)NCC(=O)N[C@@H](CO)C(=O)N[C@@H](CC(N)=O)C(=O)N[C@H](C(=O)N[C@@H](Cc1ccc(O)cc1)C(N)=O)[C@@H](C)O)C(C)C)[C@@H](C)O
# notes: also called compound 63
# B3: N^ε1-[(4S)-4-carboxy-4-(19-carboxynonadecanoylamino)butanoyl]-[Arg17,Pro21,Pro27,His35]-h-amylin (peptide)
# peptide: K([γGlu-C20 diacid])CNTATCATQRLANFLRHSSPNFGAIPSSTNVGSHTY-NH2
# modifications: disulfide 2-7; N-terminus assumed
# SMILES: CC[C@H](C)[C@H](NC(=O)[C@H](C)NC(=O)CNC(=O)[C@H](Cc1ccccc1)NC(=O)[C@H](CC(N)=O)NC(=O)[C@@H]1CCCN1C(=O)[C@H](CO)NC(=O)[C@H](CO)NC(=O)[C@H](Cc1c[nH]cn1)NC(=O)[C@H](CCCNC(=N)N)NC(=O)[C@H](CC(C)C)NC(=O)[C@H](Cc1ccccc1)NC(=O)[C@H](CC(N)=O)NC(=O)[C@H](C)NC(=O)[C@H](CC(C)C)NC(=O)[C@H](CCCNC(=N)N)NC(=O)[C@H](CCC(N)=O)NC(=O)[C@@H](NC(=O)[C@H](C)NC(=O)[C@@H]1CSSC[C@H](NC(=O)[C@@H](N)CCCCNC(=O)CC[C@H](NC(=O)CCCCCCCCCCCCCCCCCCC(=O)O)C(=O)O)C(=O)N[C@@H](CC(N)=O)C(=O)N[C@@H]([C@@H](C)O)C(=O)N[C@@H](C)C(=O)N[C@@H]([C@@H](C)O)C(=O)N1)[C@@H](C)O)C(=O)N1CCC[C@H]1C(=O)N[C@@H](CO)C(=O)N[C@@H](CO)C(=O)N[C@H](C(=O)N[C@@H](CC(N)=O)C(=O)N[C@H](C(=O)NCC(=O)N[C@@H](CO)C(=O)N[C@@H](Cc1c[nH]cn1)C(=O)N[C@H](C(=O)N[C@@H](Cc1ccc(O)cc1)C(N)=O)[C@@H](C)O)C(C)C)[C@@H](C)O
# notes: also called compound 60
# B4: N^ε1-[(4S)-4-carboxy-4-(19-carboxynonadecanoylamino)butanoyl]-[Arg17,Pro21,Pro27,His34]-h-amylin (peptide)
# peptide: K([γGlu-C20 diacid])CNTATCATQRLANFLRHSSPNFGAIPSSTNVGHNTY-NH2
# modifications: disulfide 2-7; N-terminus assumed
# SMILES: CC[C@H](C)[C@H](NC(=O)[C@H](C)NC(=O)CNC(=O)[C@H](Cc1ccccc1)NC(=O)[C@H](CC(N)=O)NC(=O)[C@@H]1CCCN1C(=O)[C@H](CO)NC(=O)[C@H](CO)NC(=O)[C@H](Cc1c[nH]cn1)NC(=O)[C@H](CCCNC(=N)N)NC(=O)[C@H](CC(C)C)NC(=O)[C@H](Cc1ccccc1)NC(=O)[C@H](CC(N)=O)NC(=O)[C@H](C)NC(=O)[C@H](CC(C)C)NC(=O)[C@H](CCCNC(=N)N)NC(=O)[C@H](CCC(N)=O)NC(=O)[C@@H](NC(=O)[C@H](C)NC(=O)[C@@H]1CSSC[C@H](NC(=O)[C@@H](N)CCCCNC(=O)CC[C@H](NC(=O)CCCCCCCCCCCCCCCCCCC(=O)O)C(=O)O)C(=O)N[C@@H](CC(N)=O)C(=O)N[C@@H]([C@@H](C)O)C(=O)N[C@@H](C)C(=O)N[C@@H]([C@@H](C)O)C(=O)N1)[C@@H](C)O)C(=O)N1CCC[C@H]1C(=O)N[C@@H](CO)C(=O)N[C@@H](CO)C(=O)N[C@H](C(=O)N[C@@H](CC(N)=O)C(=O)N[C@H](C(=O)NCC(=O)N[C@@H](Cc1c[nH]cn1)C(=O)N[C@@H](CC(N)=O)C(=O)N[C@H](C(=O)N[C@@H](Cc1ccc(O)cc1)C(N)=O)[C@@H](C)O)C(C)C)[C@@H](C)O
# notes: also called compound 77
# B5: N^ε1-[(4S)-4-carboxy-4-(19-carboxynonadecanoylamino)butanoyl]-[Arg14,Arg17,Pro21,Pro27,Pro34]-h-amylin (peptide)
# peptide: K([γGlu-C20 diacid])CNTATCATQRLARFLRHSSPNFGAIPSSTNVGPNTY-NH2
# modifications: disulfide 2-7; N-terminus assumed
# SMILES: CC[C@H](C)[C@H](NC(=O)[C@H](C)NC(=O)CNC(=O)[C@H](Cc1ccccc1)NC(=O)[C@H](CC(N)=O)NC(=O)[C@@H]1CCCN1C(=O)[C@H](CO)NC(=O)[C@H](CO)NC(=O)[C@H](Cc1c[nH]cn1)NC(=O)[C@H](CCCNC(=N)N)NC(=O)[C@H](CC(C)C)NC(=O)[C@H](Cc1ccccc1)NC(=O)[C@H](CCCNC(=N)N)NC(=O)[C@H](C)NC(=O)[C@H](CC(C)C)NC(=O)[C@H](CCCNC(=N)N)NC(=O)[C@H](CCC(N)=O)NC(=O)[C@@H](NC(=O)[C@H](C)NC(=O)[C@@H]1CSSC[C@H](NC(=O)[C@@H](N)CCCCNC(=O)CC[C@H](NC(=O)CCCCCCCCCCCCCCCCCCC(=O)O)C(=O)O)C(=O)N[C@@H](CC(N)=O)C(=O)N[C@@H]([C@@H](C)O)C(=O)N[C@@H](C)C(=O)N[C@@H]([C@@H](C)O)C(=O)N1)[C@@H](C)O)C(=O)N1CCC[C@H]1C(=O)N[C@@H](CO)C(=O)N[C@@H](CO)C(=O)N[C@H](C(=O)N[C@@H](CC(N)=O)C(=O)N[C@H](C(=O)NCC(=O)N1CCC[C@H]1C(=O)N[C@@H](CC(N)=O)C(=O)N[C@H](C(=O)N[C@@H](Cc1ccc(O)cc1)C(N)=O)[C@@H](C)O)C(C)C)[C@@H](C)O
# notes: also called compound 65
# B6: N^ε1-[2-[2-[2-[[(4S)-4-carboxy-4-(19-carboxynonadecanoylamino)butanoyl]amino]ethoxy]ethoxy]acetyl]-[Thr14,Arg17,Pro21,Pro27,Pro31]-h-amylin (peptide)
# peptide: K([AEEA-γGlu-C20 diacid])CNTATCATQRLATFLRHSSPNFGAIPSSTPVGSNTY-NH2
# modifications: disulfide 2-7; N-terminus assumed
# SMILES: CC[C@H](C)[C@H](NC(=O)[C@H](C)NC(=O)CNC(=O)[C@H](Cc1ccccc1)NC(=O)[C@H](CC(N)=O)NC(=O)[C@@H]1CCCN1C(=O)[C@H](CO)NC(=O)[C@H](CO)NC(=O)[C@H](Cc1c[nH]cn1)NC(=O)[C@H](CCCNC(=N)N)NC(=O)[C@H](CC(C)C)NC(=O)[C@H](Cc1ccccc1)NC(=O)[C@@H](NC(=O)[C@H](C)NC(=O)[C@H](CC(C)C)NC(=O)[C@H](CCCNC(=N)N)NC(=O)[C@H](CCC(N)=O)NC(=O)[C@@H](NC(=O)[C@H](C)NC(=O)[C@@H]1CSSC[C@H](NC(=O)[C@@H](N)CCCCNC(=O)COCCOCCNC(=O)CC[C@H](NC(=O)CCCCCCCCCCCCCCCCCCC(=O)O)C(=O)O)C(=O)N[C@@H](CC(N)=O)C(=O)N[C@@H]([C@@H](C)O)C(=O)N[C@@H](C)C(=O)N[C@@H]([C@@H](C)O)C(=O)N1)[C@@H](C)O)[C@@H](C)O)C(=O)N1CCC[C@H]1C(=O)N[C@@H](CO)C(=O)N[C@@H](CO)C(=O)N[C@H](C(=O)N1CCC[C@H]1C(=O)N[C@H](C(=O)NCC(=O)N[C@@H](CO)C(=O)N[C@@H](CC(N)=O)C(=O)N[C@H](C(=O)N[C@@H](Cc1ccc(O)cc1)C(N)=O)[C@@H](C)O)C(C)C)[C@@H](C)O
# notes: also called compound 75
# Molecular target: T1, human calcitonin receptor
# Experiment: cell-based or functional assay
Ratio hCT/hAmylin funct. (hCTR EC50 against hAmylin-R EC50),hCTR funct. EC50 [nM],Binder
11.3,0.961,B1
139,5.13,B2
15.3,5.36,B3
37.3,5.4,B4
38.6,9.33,B5
30.6,9.07,B6

# Molecular target: T2, human amylin receptor (amylin 3(a) …)
# Experiment: cell-based or functional assay
row,hAmylin-R funct. EC50 [nM],Binder
1,0.085,B1
2,0.037,B2
3,0.351,B3
4,0.145,B4
5,0.242,B5
6,0.296,B6
